T1: DNA polymerase V (UmuD′2C) (E. coli, UniProt P04152 1-422; P0AG11 25-139)
T1 chain 1: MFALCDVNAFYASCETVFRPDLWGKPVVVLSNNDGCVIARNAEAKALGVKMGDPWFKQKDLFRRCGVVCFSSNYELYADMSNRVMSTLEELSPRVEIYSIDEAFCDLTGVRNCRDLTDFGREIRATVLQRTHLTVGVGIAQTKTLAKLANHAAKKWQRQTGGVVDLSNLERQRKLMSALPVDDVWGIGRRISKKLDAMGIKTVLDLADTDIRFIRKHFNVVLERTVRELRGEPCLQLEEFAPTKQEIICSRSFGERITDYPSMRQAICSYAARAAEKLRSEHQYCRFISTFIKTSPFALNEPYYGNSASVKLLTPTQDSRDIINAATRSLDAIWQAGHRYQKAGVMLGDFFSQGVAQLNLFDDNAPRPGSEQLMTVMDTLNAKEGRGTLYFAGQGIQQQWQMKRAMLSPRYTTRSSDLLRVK
T1 chain 2: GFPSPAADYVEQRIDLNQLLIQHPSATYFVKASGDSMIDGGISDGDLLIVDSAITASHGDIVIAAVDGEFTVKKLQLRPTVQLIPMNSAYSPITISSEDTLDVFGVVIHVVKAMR

B1: RecA D112R, fluorescein-labelled (natural protein)
chain: AIDENKQKALAAALGQIEKQFGKGSIMRLGEDRSMDVETISTGSLSLDIALGAGGLPMGRIVEIYGPESSGKTTLTLQVIAAAQREGKTCAFIDAEHALDPIYARKLGVDIRNLLCSQPDTGEQALEICDALARSGAVDVIVVDSVAALTPKAEIEGEIGDSHMGLAARMMSQAMRKLAGNLKQSNTLLIFINQIRMKIGVMFGNPETTTGGNALKFYASVRLDIRRIGAVKEGENVVGSETRVKVVKNKIAAPFKQAEFQILYGEGINFYGELVDLGVKEKLIEKAGAWYSYKGEKIGQGKANATAWLKDNPETAKEIEKKVRELLLSNPNSTPDFSVDDSEGVAETNEDF
modifications: fluorescein (Fluorescein-EX Protein Labeling Kit); labelled residues not stated
B2: wild-type E. coli RecA protein, fluorescein-labelled (natural protein)
chain: MAIDENKQKALAAALGQIEKQFGKGSIMRLGEDRSMDVETISTGSLSLDIALGAGGLPMGRIVEIYGPESSGKTTLTLQVIAAAQREGKTCAFIDAEHALDPIYARKLGVDIDNLLCSQPDTGEQALEICDALARSGAVDVIVVDSVAALTPKAEIEGEIGDSHMGLAARMMSQAMRKLAGNLKQSNTLLIFINQIRMKIGVMFGNPETTTGGNALKFYASVRLDIRRIGAVKEGENVVGSETRVKVVKNKIAAPFKQAEFQILYGEGINFYGELVDLGVKEKLIEKAGAWYSYKGEKIGQGKANATAWLKDNPETAKEIEKKVRELLLSNPNSTPDFSVDDSEGVAETNEDF
modifications: fluorescein (Fluorescein-EX Protein Labeling Kit); labelled residues not stated

Molecular target: T1, DNA polymerase V (UmuD′2C)
Test: FP; apparent Kd

| Binder | Kd [nM] |
| --- | --- |
| B1 | 297 |
| B2 | 239 |
